The RNAGym collection of RNA variant scans (doi:10.7554/elife.80360)

B1: HDV Ribozyme (parent)
chain: GGCCGGCAUGGUCCCAGCCUCCUCGCUGGCGCCGGCUGGGCAACAUUCCGAGGGGACCGUCCCCUCGGUAAUGGCGAAUGGGACCCA

Variants of: B1
Assay: self-cleavage, relative activity (ratio to wild type); higher = more cleavage; co-transcriptional

Going from C7U U46G to U37A A42U, the self-cleavage falls from 0.68 to 0.131.

First: G11A C61U
Second: G31A A42G
The self-cleavage of the first is higher: 0.529 for the first, 0.116 for the second.

First: C41G C64G
Second: G1C A78C
The self-cleavage of the first is higher: 0.536 for the first, 0 for the second.

Going from U12C C19A to A8G C32G, the self-cleavage rises from 0.0361 to 0.0573.

Going from G31A C36U to G74A A87U, the self-cleavage rises from 0.241 to 0.628.

Going from C61A C64U to C4A C84U, the self-cleavage falls from 0.997 to 0.172.

Going from G17C G29C to C3A G6C, the self-cleavage falls from 0.166 to 0.0282.

Going from G50C A56G to U9C A77G, the self-cleavage rises from 0.734 to 1.05.

Going from C21U C58G to G53U A71U, the self-cleavage rises from 0.227 to 0.92.

First: C66G U79G
Second: U79C C85G
The self-cleavage of the first is higher: 0.772 for the first, 0.287 for the second.

C32A C36A and G1C A71U are the same in self-cleavage: 0 for the first, 0 for the second.

Going from U23A C48A to U23C G38U, the self-cleavage falls from 0.88 to 0.175.

Compared with U9G G68C, C33G C64U is lower in self-cleavage: 1.02 for the first, 0.306 for the second.

Going from G38U A70U to G55A C85U, the self-cleavage rises from 0.277 to 0.885.

Compared with U12G C41A, A78G A87G is lower in self-cleavage: 1.06 for the first, 0.658 for the second.

Compared with G54U C62A, A8G C61G is higher in self-cleavage: 0.99 for the first, 1.04 for the second.

Compared with G55C C58A, U23G G50U is lower in self-cleavage: 1.15 for the first, 0.607 for the second.

First: C75A G76A
Second: G25C C36A
The self-cleavage of the first is higher: 0.166 for the first, 0.128 for the second.

Compared with U20C G54C, A45C A77G is higher in self-cleavage: 0.0475 for the first, 0.534 for the second.

First: C14U C18U
Second: C48G U79A
The self-cleavage of the first is lower: 0.591 for the first, 0.911 for the second.

First: G10U G68U
Second: G1C C15U
The self-cleavage of the first is higher: 0.727 for the first, 0.0831 for the second.

Compared with C26U U27G, G28C C36U is lower in self-cleavage: 0.923 for the first, 0.145 for the second.

Going from G25C G38C to A71G G76A, the self-cleavage rises from 0.119 to 1.

Going from C21G A77U to A42G U79G, the self-cleavage rises from 0.0426 to 0.359.

First: C33U G54C
Second: G50C A87C
The self-cleavage of the first is lower: 0.623 for the first, 0.95 for the second.

Compared with A8C C33G, C49A A78U is higher in self-cleavage: 0.0923 for the first, 0.248 for the second.

Compared with G38U G81C, A16U G40C is higher in self-cleavage: 0.0678 for the first, 0.365 for the second.

First: G28U G35A
Second: G29C A43C
The self-cleavage of the first is lower: 0.0213 for the first, 0.0489 for the second.

Compared with U27G G39U, C33G A71U is lower in self-cleavage: 0.222 for the first, 0.213 for the second.

First: C7A G81U
Second: C44A G68A
The self-cleavage of the first is lower: 0.116 for the first, 0.704 for the second.

First: A56G U79C
Second: G28U C75G
The self-cleavage of the first is higher: 0.242 for the first, 0.0302 for the second.

Going from G1A C14G to C3A C18A, the self-cleavage falls from 0.0665 to 0.0282.

Going from G10U G81U to A43C A78U, the self-cleavage falls from 0.0791 to 0.0415.

Going from U12C A78G to C3A G6A, the self-cleavage falls from 0.192 to 0.0931.

Compared with G29C G31C, G54A A70U is higher in self-cleavage: 0 for the first, 0.843 for the second.

First: G53C A71C
Second: U12A C66A
The self-cleavage of the first is higher: 0.356 for the first, 0.193 for the second.

Going from G17A C62U to C48U C61U, the self-cleavage rises from 0.554 to 0.856.

Compared with G28U A71G, G29A A42G is lower in self-cleavage: 0.0554 for the first, 0.0415 for the second.

Going from U20C C62G to U47C U79A, the self-cleavage rises from 0.0665 to 0.65.

Going from G11U U47G to G29C U72C, the self-cleavage falls from 0.246 to 0.

Compared with C15A C62U, G29U C41U is lower in self-cleavage: 0.764 for the first, 0.0432 for the second.

Compared with C7G C21U, U47C C75A is higher in self-cleavage: 0.0594 for the first, 0.214 for the second.

Going from A42C G81C to U12A C41G, the self-cleavage rises from 0.0978 to 0.138.

Compared with C4U A42U, U9G G81U is higher in self-cleavage: 0.284 for the first, 0.437 for the second.

Going from G25A C84G to G17C C32G, the self-cleavage falls from 0.17 to 0.

Going from C3U U72G to G68A U79G, the self-cleavage rises from 0.453 to 0.584.

First: C21G U65G
Second: C21A C33U
The self-cleavage of the first is lower: 0 for the first, 0.0723 for the second.

Compared with G59C G67U, C41A A51U is lower in self-cleavage: 1.09 for the first, 0.981 for the second.

First: C49G A56C
Second: C57U U79C
The self-cleavage of the first is higher: 0.785 for the first, 0.237 for the second.

Compared with C15U G35A, C14U G40C is lower in self-cleavage: 0.475 for the first, 0.391 for the second.

Compared with G25C C41G, G31C C36A is higher in self-cleavage: 0 for the first, 0.0277 for the second.

Going from C48U U72A to G5U A8C, the self-cleavage falls from 0.855 to 0.0875.

Compared with G53U C75A, U12A G59C is higher in self-cleavage: 0.117 for the first, 0.573 for the second.

First: C30G A83G
Second: G52A C85G
The self-cleavage of the first is lower: 0 for the first, 1 for the second.

First: C22U A70C
Second: U47A G68C
The self-cleavage of the first is lower: 0.656 for the first, 0.982 for the second.

Compared with A51G G80A, U46A C84G is higher in self-cleavage: 0.376 for the first, 0.68 for the second.

First: A8G G50A
Second: C44G C58G
The self-cleavage of the first is higher: 1.03 for the first, 0.665 for the second.

Compared with A16C A70G, C18A G31C is lower in self-cleavage: 0.923 for the first, 0.163 for the second.

Compared with C41U G55U, G29A G73U is lower in self-cleavage: 1 for the first, 0.112 for the second.

Going from C13A U27C to G40A U72A, the self-cleavage falls from 0.594 to 0.446.

Compared with C4U U46A, A43U C48A is lower in self-cleavage: 0.485 for the first, 0.424 for the second.

Going from U23A U72G to A77U C84U, the self-cleavage rises from 0.302 to 0.489.

Going from C58U C85A to G10C G28C, the self-cleavage falls from 1.13 to 0.107.

Going from U9C U60A to C18A C24U, the self-cleavage falls from 0.862 to 0.104.

First: C48G G55C
Second: C13U C22A
The self-cleavage of the first is higher: 0.851 for the first, 0.124 for the second.

Compared with G67A G73C, C18G G73C is lower in self-cleavage: 0.13 for the first, 0.104 for the second.

Compared with G74A G82C, G34U C64U is lower in self-cleavage: 0.249 for the first, 0.246 for the second.

Compared with A43G C57U, G10A C44U is lower in self-cleavage: 0.974 for the first, 0.463 for the second.

Compared with U69A C75G, A42U A77U is lower in self-cleavage: 0.138 for the first, 0.0739 for the second.

Compared with C3G U23C, C26U U37G is lower in self-cleavage: 0.48 for the first, 0.346 for the second.

Going from U23G G68U to G2U A16G, the self-cleavage falls from 0.969 to 0.0426.

Going from C32U A56G to G74A, the self-cleavage falls from 0.872 to 0.478.

Compared with C30U G81A, G17C C24G is lower in self-cleavage: 0.155 for the first, 0.0898 for the second.

First: C4A C30U
Second: G10C C75A
The self-cleavage of the first is lower: 0.116 for the first, 0.415 for the second.

Compared with C7G C66G, G74C is lower in self-cleavage: 0.214 for the first, 0.213 for the second.

First: C22U G50A
Second: G53U G68A
The self-cleavage of the first is lower: 0.745 for the first, 0.903 for the second.

First: U69C C84G
Second: U46C U47A
The self-cleavage of the first is lower: 0.875 for the first, 1.08 for the second.

First: C62G C66A
Second: G17C A43C
The self-cleavage of the first is higher: 0.323 for the first, 0.119 for the second.

First: G52U U60G
Second: G53U C86G
The self-cleavage of the first is lower: 0.978 for the first, 1.12 for the second.

Going from U23A A56G to U12G C85A, the self-cleavage falls from 1.02 to 0.712.

Going from C13G G17C to G68U A83G, the self-cleavage rises from 0.138 to 0.407.

Going from C24A U27A to A8C A45G, the self-cleavage falls from 0.639 to 0.615.

First: G11U C18U
Second: G35C G54C
The self-cleavage of the first is lower: 0.0504 for the first, 0.17 for the second.

Variant C15A A16G has a self-cleavage of 0.35.
